B1: Disabled homolog 2 (Mus musculus), P98078-1 (parent)
chain: MSNEVETSTTNGQPDQQAAPKAPSKKEKKKGSEKTDEYLLARFKGDGVKYKAKLIGIDDVPDARGDKMSQDSMMKLKGMAAAGRSQGQHKQRIWVNISLSGIKIIDEKTGVIEHEHPVNKISFIARDVTDNRAFGYVCGGEGQHQFFAIKTGQQAEPLVVDLKDLFQVIYNVKKKEEDKKKVEEANKAEENGSEALMTLDDQANKLKLGVDQMDLFGDMSTPPDLNSPTESKDILLVDLNSEIDTNQNSLRENPFLTNGVTSCSLPRPKPQASFLPENAFSANLNFFPTPNPDPFRDDPFAQPDQSAPSSFDSLTSPDQKKASLSSSSTPQSKGPLNGDTDYFGQQFDQLSNRTGKPEAQGGPWPYPSSQTQQAVRTQNGVSEREQNGFHIKSSPNPFVGSPPKGLSVPNGVKQDLESSVQSSAHDSIAIIPPPQSTKPGRGRRTAKSSANDLLASDIFASEPPGQMSPTGQPAVPQSNFLDLFKGNAPAPVGPLVGLGTVPVTPPQAGPWTPVVYSPSTTVVPGAIISGQPPSFRQPLVFGTTPAVQVWNQSPSFATPASPPPPTVWCPTTSVAPNAWSSTSPLGNPFQSNNIFPPPTMSTQSSPQPMMSSVLATPPQPPPRNGPLKDIPSDAFTGLDPLGDKEVKEVKEMFKDFQLRQPPLVPSRKGETPPSGTSSAFSSYFNNKVGIPQEHVDHDDFDANQLLNKINEPPKPAPRQGVLLGTKSADNSLENPFSKGFSSSNPSVVSQPASSDPHRSPFGNPFA
partner: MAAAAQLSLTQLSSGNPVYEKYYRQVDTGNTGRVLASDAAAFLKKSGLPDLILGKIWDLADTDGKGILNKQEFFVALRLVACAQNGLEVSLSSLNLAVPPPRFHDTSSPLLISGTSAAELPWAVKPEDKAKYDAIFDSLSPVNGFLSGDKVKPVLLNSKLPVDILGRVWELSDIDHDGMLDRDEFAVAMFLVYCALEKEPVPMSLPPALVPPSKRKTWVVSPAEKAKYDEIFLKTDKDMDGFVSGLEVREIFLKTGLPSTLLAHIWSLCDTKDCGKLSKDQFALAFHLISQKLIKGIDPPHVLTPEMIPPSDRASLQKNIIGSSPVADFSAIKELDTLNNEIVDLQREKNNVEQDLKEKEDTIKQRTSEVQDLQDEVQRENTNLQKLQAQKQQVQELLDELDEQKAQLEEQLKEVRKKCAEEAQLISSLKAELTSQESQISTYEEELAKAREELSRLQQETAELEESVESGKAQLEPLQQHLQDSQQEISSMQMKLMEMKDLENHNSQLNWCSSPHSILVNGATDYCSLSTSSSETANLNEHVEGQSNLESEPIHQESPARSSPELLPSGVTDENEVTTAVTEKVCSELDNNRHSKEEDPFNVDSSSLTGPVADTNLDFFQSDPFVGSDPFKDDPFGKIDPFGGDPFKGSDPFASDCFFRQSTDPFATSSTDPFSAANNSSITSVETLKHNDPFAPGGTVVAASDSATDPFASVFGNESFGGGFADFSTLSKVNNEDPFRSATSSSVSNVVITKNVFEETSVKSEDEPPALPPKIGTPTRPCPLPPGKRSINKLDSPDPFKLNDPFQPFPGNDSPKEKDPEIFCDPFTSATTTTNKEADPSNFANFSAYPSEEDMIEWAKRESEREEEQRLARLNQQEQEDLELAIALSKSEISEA
B2: Disabled homolog 2 (Mus musculus), P98078-1 (parent)
chain: B1 chain

Variants of: B1
Details: with eps15_human EPS15, P42566

| Variant | effect of a mutation on the interaction |
| --- | --- |
| F589V;F736V;F765V | disrupting interaction |

Variants of: B2
Details: with itsn1_mouse Itsn1, Q9Z0R4
Sequence of itsn1_mouse Itsn1, Q9Z0R4 (Q9Z0R4 whole entry): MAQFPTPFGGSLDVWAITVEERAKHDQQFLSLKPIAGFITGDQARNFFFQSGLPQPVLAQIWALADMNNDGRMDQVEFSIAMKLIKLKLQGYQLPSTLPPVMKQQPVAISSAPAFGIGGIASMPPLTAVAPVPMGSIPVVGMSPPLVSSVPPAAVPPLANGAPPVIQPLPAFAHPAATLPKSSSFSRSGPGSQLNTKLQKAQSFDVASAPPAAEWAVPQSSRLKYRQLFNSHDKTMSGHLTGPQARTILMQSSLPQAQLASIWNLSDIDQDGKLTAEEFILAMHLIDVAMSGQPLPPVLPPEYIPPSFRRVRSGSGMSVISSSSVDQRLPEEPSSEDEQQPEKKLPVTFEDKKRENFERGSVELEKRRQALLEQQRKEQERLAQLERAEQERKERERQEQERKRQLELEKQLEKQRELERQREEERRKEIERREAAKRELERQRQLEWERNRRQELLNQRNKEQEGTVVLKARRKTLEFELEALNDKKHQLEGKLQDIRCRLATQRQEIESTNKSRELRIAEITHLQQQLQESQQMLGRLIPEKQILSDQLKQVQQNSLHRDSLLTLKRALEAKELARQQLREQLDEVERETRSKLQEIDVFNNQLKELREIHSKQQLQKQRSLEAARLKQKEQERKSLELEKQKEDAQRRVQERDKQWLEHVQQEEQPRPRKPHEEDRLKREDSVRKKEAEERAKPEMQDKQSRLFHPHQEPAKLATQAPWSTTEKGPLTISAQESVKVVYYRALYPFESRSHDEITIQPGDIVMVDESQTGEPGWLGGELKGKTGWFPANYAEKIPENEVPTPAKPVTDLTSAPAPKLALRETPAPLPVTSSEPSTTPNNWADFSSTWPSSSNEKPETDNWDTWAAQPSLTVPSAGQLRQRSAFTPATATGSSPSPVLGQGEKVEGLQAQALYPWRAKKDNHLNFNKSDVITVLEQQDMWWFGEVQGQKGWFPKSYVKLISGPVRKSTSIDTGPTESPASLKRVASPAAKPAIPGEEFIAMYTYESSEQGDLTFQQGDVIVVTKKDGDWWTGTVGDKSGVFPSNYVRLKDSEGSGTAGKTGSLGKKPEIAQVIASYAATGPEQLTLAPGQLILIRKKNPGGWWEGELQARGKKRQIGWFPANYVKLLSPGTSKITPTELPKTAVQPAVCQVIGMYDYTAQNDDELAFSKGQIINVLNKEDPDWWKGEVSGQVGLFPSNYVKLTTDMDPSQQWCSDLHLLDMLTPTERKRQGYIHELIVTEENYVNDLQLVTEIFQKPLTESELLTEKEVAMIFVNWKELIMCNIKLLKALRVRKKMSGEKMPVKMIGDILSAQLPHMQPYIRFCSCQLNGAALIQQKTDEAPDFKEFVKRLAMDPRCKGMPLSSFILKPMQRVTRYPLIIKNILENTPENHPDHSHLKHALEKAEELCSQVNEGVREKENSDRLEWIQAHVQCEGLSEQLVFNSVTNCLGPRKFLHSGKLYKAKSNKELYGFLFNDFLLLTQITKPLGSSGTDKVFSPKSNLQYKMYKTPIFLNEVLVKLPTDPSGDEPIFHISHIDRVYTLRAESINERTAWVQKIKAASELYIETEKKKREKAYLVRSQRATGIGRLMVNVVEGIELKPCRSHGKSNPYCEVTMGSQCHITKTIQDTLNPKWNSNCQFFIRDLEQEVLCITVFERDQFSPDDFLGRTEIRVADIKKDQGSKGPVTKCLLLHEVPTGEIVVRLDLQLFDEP

| Variant | effect of a mutation on the interaction |
| --- | --- |
| F255V;F398V;F589V;F736V;F765V | disrupting interaction |
| F589V;F736V;F765V | decreasing interaction |
| F255V;F398V | decreasing interaction |
